B1: C4m#19-5th2w-NNS6-43 (peptide, not shown: large carriers; small tags and cut ends)
chain: GGCRHPFLPIWSSHFCAA
B2: C4m#19-5th4w-NN6-72 (peptide, not shown: large carriers; small tags and cut ends)
chain: GGCWHPWLPIVSVHFCGC
B3: C4m#19-5th4w-NN6-36 (peptide, not shown: large carriers; small tags and cut ends)
chain: GGCRHPYLPIWSAHFCCR
B4: C4m#19-5th2w-NNS6-33 (peptide, not shown: large carriers; small tags and cut ends)
chain: GGCRHPFLPIWSFHFCWG
B5: C4m3127-4th-NNS6-66 (peptide, not shown: large carriers; small tags and cut ends)
chain: GGCAHPHLPIRSVHFCSF
B6: C4m3127-4th-NNS6-95 (peptide, not shown: large carriers; small tags and cut ends)
chain: GGCWHPVLPIRSGHFCSR
B7: C4m#19-5th2w-NNS6-26 (peptide, not shown: large carriers; small tags and cut ends)
chain: GGCLHPFLPIVSIHFCSA
B8: C4m3127-4th-NNS6-89 (peptide, not shown: large carriers; small tags and cut ends)
chain: GGCWHPFLPIFSAHFCMR
B9: C4m#19-5th2w-NNS6-34 (peptide, not shown: large carriers; small tags and cut ends)
chain: GGCCHPFLPIYSVHFCAS
B10: C4m3127-4th-NNS6-26 (peptide, not shown: large carriers; small tags and cut ends)
chain: GGCAHPALPIWSCHFCPF
B11: C4m#19-5th2w-NNS6-84 (peptide, not shown: large carriers; small tags and cut ends)
chain: GGCWHPFLPIVSFHFCPF
B12: C4m#19-5th2w-NNS6-4 (peptide, not shown: large carriers; small tags and cut ends)
chain: GGCFHPWLPISSLHFCPF
B13: C4m#19-5th2w-NNS6-80 (peptide, not shown: large carriers; small tags and cut ends)
chain: GGCLHPFLPIVSWHFCPC
B14: C4m3127-4th-NNS6-30 (peptide, not shown: large carriers; small tags and cut ends)
chain: GGCWHPCLPILSPHFCPR
B15: C4m#19-5th2w-NNS6-66 (peptide, not shown: large carriers; small tags and cut ends)
chain: GGCRHPFLPIFSVHFCPF
B16: C4m#19-5th2w-NNS6-27 (peptide, not shown: large carriers; small tags and cut ends)
chain: GGCFHPFLPIRSCHFCAR
B17: C4m#19-5th2w-NNS6-61 (peptide, not shown: large carriers; small tags and cut ends)
chain: GGCCHPWLPIRSVHFCPF
B18: C4m3127-4th-NNS6-19 (peptide, not shown: large carriers; small tags and cut ends)
chain: GGCMHPSLPIWSWHFCPH
B19: C4m3127-4th-NNS6-7 (peptide, not shown: large carriers; small tags and cut ends)
chain: GGCRHPFLPIRSPHFCGS
B20: C4m#19-5th2w-NNS6-79 (peptide, not shown: large carriers; small tags and cut ends)
chain: GGCRHPFLPIVSRHFCVA
B21: C4m#19-5th2w-NNS6-70 (peptide, not shown: large carriers; small tags and cut ends)
chain: GGCRHPFLPIVSWHFCAA
B22: C4m#19-5th2w-NNS6-45 (peptide, not shown: large carriers; small tags and cut ends)
chain: GGCRHPFLPIWSVHFCWR
B23: C4m3127-4th-NNS6-37 (peptide, not shown: large carriers; small tags and cut ends)
chain: GGCWHPVLPIRSIHFCGC
B24: C4m3127-4th-NNS6-70 (peptide, not shown: large carriers; small tags and cut ends)
chain: GGCSHPYLPIHSRHFCLS
B25: C4m#19-5th4w-NN6-80 (peptide, not shown: large carriers; small tags and cut ends)
chain: GGCRHPFLPIFSWHFCAV
B26: C4m#19-5th4w-NN6-75 (peptide, not shown: large carriers; small tags and cut ends)
chain: GGCWHPFLPIKSVHFCCA
B27: C4m#19-5th4w-NN6-89 (peptide, not shown: large carriers; small tags and cut ends)
chain: GGCMHPFLPIISQHFCAF
B28: C4m#19-5th4w-NN6-94 (peptide, not shown: large carriers; small tags and cut ends)
chain: GGCLHPFLPIYSLHFCPC
B29: C4m#19-5th4w-NN6-61 (peptide, not shown: large carriers; small tags and cut ends)
chain: GGCPHPMLPIFSVHFCPY
B30: C4m#19-5th2w-NNS6-53 (peptide, not shown: large carriers; small tags and cut ends)
chain: GGCLHPWLPIRSFHFCGA
B31: C4m#19-5th2w-NNS6-93 (peptide, not shown: large carriers; small tags and cut ends)
chain: GGCFHPFLPIQSRHFCCR
B32: C4m#19-5th2w-NNS6-68 (peptide, not shown: large carriers; small tags and cut ends)
chain: GGCLHPWLPIVSCHFCPR
B33: C4m#19-5th2w-NNS6-37 (peptide, not shown: large carriers; small tags and cut ends)
chain: GGCIHPFLPIWSIHFCSR
B34: C4m#19-5th2w-NNS6-46 (peptide, not shown: large carriers; small tags and cut ends)
chain: GGCFHPFLPIFSYHFCGL
B35: C4m#19-5th4w-NN6-40 (peptide, not shown: large carriers; small tags and cut ends)
chain: GGCFHPFLPIRSHHFCML
B36: C4m3127-4th-NNS6-85 (peptide, not shown: large carriers; small tags and cut ends)
chain: GGCGHPFLPIFSSHFCPL
B37: C4m#19-5th2w-NNS6-87 (peptide, not shown: large carriers; small tags and cut ends)
chain: GGCLHPYLPIFSVHFCAL
B38: C4m3127-4th-NNS6-3 (peptide, not shown: large carriers; small tags and cut ends)
chain: GGCSHPFLPIWSVHFCGQ
B39: C4m#19-5th4w-NN6-49 (peptide, not shown: large carriers; small tags and cut ends)
chain: GGCMHPYLPIRSFHFCSC
B40: C4m3127-4th-NNS6-20 (peptide, not shown: large carriers; small tags and cut ends)
chain: GGCLHPFLPILSLHFCPF
B41: C4m#19-5th2w-NNS6-30 (peptide, not shown: large carriers; small tags and cut ends)
chain: GGCWHPFLPILSWHFCGR
B42: C4m3127-4th-NNS6-94 (peptide, not shown: large carriers; small tags and cut ends)
chain: GGCRHPVLPIWSSHFCPW
B43: C4m#19-5th2w-NNS6-6 (peptide, not shown: large carriers; small tags and cut ends)
chain: GGCWHPYLPILSLHFCQR
B44: C4m#19-5th2w-NNS6-28 (peptide, not shown: large carriers; small tags and cut ends)
chain: GGCAHPYLPIRSVHFCPC
B45: C4m#19-5th2w-NNS6-86 (peptide, not shown: large carriers; small tags and cut ends)
chain: GGCFHPYLPIWSLHFCRS
B46: C4m#19-5th2w-NNS6-74 (peptide, not shown: large carriers; small tags and cut ends)
chain: GGCMHPFLPIRSWHFCSR

The results in this text go back to patent US20240092836A1.

The test addresses Recombinant Human CTLA4-Fc chimera (R&D systems) (human) (UniProt P16410). Put plainly: ELISA, signal over SA. Background: An ELISA detects its analyte on a solid surface through an enzyme-linked reagent.
For the molecule B1, the ELISA S/N(SA) came to 4.8.

Take B2: the ELISA S/N(SA) worked out at 4.6.

In the case of B3, the ELISA S/N(SA) stood at 5.7.

With B4, the ELISA S/N(SA) worked out at 9.4.

Regarding B5, the ELISA S/N(SA) amounted to 4.8.

For B6, the ELISA S/N(SA) came to 3.4.

Regarding B7, the ELISA S/N(SA) was 5.8.

As for B8, the ELISA S/N(SA) was found to be 6.6.

Turning to B9, the ELISA S/N(SA) was 5.

Take B10: the ELISA S/N(SA) was 7.1.

With B11, the ELISA S/N(SA) came to 6.4.

On to B12, for which the ELISA S/N(SA) turned out to be 6.3.

Take B13: the ELISA S/N(SA) is 3.6.

Regarding B14, the ELISA S/N(SA) stood at 7.5.

Take B15: the ELISA S/N(SA) is 4.4.

Regarding B16, the ELISA S/N(SA) stood at 9.9.

As for B17, the ELISA S/N(SA) came out at 4.3.

Regarding B18, the ELISA S/N(SA) was determined as 4.1.

For the molecule B19, the ELISA S/N(SA) was determined as 4.7.

For the molecule B20, the ELISA S/N(SA) turned out to be 9.2.

With B21, the ELISA S/N(SA) worked out at 5.1.

For B22, the ELISA S/N(SA) worked out at 11.

As for B23, the ELISA S/N(SA) turned out to be 3.5.

In the case of B24, the ELISA S/N(SA) stood at 4.6.

For B25, the ELISA S/N(SA) worked out at 3.8.

B26: the ELISA S/N(SA) is 5.6.

B27: the ELISA S/N(SA) was determined as 8.3.

As to B28, the ELISA S/N(SA) was found to be 5.

As for B29, the ELISA S/N(SA) turned out to be 5.9.

For B30, the ELISA S/N(SA) amounted to 11.4.

In the case of B31, the ELISA S/N(SA) came out at 3.4.

Turning to B32, the ELISA S/N(SA) came out at 4.6.

Turning to B33, the ELISA S/N(SA) came out at 9.4.

Consider B34, for which the ELISA S/N(SA) was 6.1.

B35: the ELISA S/N(SA) stood at 4.

For B36, the ELISA S/N(SA) is 9.1.

In the case of B37, the ELISA S/N(SA) came to 4.5.

With B38, the ELISA S/N(SA) stood at 10.9.

Take B39: the ELISA S/N(SA) was found to be 4.

For the molecule B40, the ELISA S/N(SA) worked out at 4.4.

Turning to B41, the ELISA S/N(SA) came to 9.

B42: the ELISA S/N(SA) stood at 5.9.

Consider B43, for which the ELISA S/N(SA) was found to be 10.3.

For the molecule B44, the ELISA S/N(SA) stood at 6.3.

As for B45, the ELISA S/N(SA) amounted to 7.7.

For the molecule B46, the ELISA S/N(SA) was 7.
